Columns and labels:
[1] = biological target: Human TIGIT expressed on the surface of cells (human) (UniProt Q495A1); assay: flow cytometry competition with 50 nM human CD155-mouse IgG2a Fc on CHOS cells overexpressing human TIGIT; fit value of the flat negative-control curve; the row of the drawn table is headed EC50, the text calls the values IC50
[2] = biological target: Human TIGIT expressed on the surface of cells (human) (UniProt Q495A1); assay: flow cytometry, antibody titrated on CHO cells expressing human TIGIT, median fluorescence intensity; fit value of the flat negative-control curve in the table under the graph
[3] = biological target: Human TIGIT expressed on the surface of cells (human) (UniProt Q495A1); assay: flow cytometry competition against 50 nM human CD155-mouse IgG2a Fc on CHOS cells expressing human TIGIT; negative control (text says IgG4)
[4] = biological target: Human TIGIT expressed on the surface of cells (human) (UniProt Q495A1); assay: flow cytometry competition against 50 nM human CD155-mouse IgG2a Fc on CHOS cells expressing human TIGIT; negative control
[5] = biological target: Human TIGIT expressed on the surface of cells (human) (UniProt Q495A1); assay: cell-based or functional assay

Chain of Human TIGIT expressed on the surface of cells (human) (Q495A1 22-244 limits assumed): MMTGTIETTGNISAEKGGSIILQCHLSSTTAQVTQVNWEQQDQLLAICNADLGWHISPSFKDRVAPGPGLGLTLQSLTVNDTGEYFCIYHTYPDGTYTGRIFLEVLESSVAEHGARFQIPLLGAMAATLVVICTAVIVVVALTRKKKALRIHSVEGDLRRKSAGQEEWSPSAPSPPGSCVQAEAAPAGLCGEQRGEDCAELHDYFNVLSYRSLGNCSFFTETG

| IC50 [1] [nM] | EC50 [2] [nM] | IC50 [3] [nM] | IC50 [4] [nM] | EC50, MOA-based assay (luciferase reporter under IL2 promoter) [5] [nM] | Substance |
| --- | --- | --- | --- | --- | --- |
| 1.15 | 53200 | – | – | – | IgG4 (antibody) |
| – | – | 1.15 | 0.039 | 273 | IgG1 (negative control) (antibody) |

From US20210040201A1
